According to patent US20250129146A1, “COMBINED CANCER THERAPY WITH AN EPITHELIAL CELL ADHESION MOLECULE (EPCAM) INHIBITOR AND A WNT INHIBITOR” (ACADEMIA SINICA, priority 2021, published 2025):
Entries after “also recorded” stand apart in the source; their conditions may differ. Values belong to the molecule of their own block, whether it stands above or below them.

How the values were obtained:
[1] = system: active β-Catenin; assay: Nuclear translocation of β-Catenin (immunofluorescence staining; cell fractionation with western blot); format: cell-based, human
Procedure: Cells (1×10^6) were seeded overnight and further allowed to grow in serum free conditions. Then cells were further treated with 20 μg/mL mEpAb2-6 or hEpAb2-6 or MT201 for 6 h or with 400 ng/mL LGK974 (MedChemExpress) for 9 h or combination as indicated. Samples were fractioned into cytosol and nuclear extracts using nuclear/cytosol fractionation kit (Biovision) according to the manufacturer's protocol. The fractions were then subjected to western blot analysis.
(§1) For western blotting, cells were extracted using radioimmunoprecipitation assay (RIPA) buffer [(0.01 M sodium phosphate, pH 7.2), 150 mM NaCl, 2 mM EDTA, 50 mM NaF, 1% Nonidet P-40, 1% sodium deoxycholate, and 0.1% SDS)] containing phosphatase inhibitor (Roche) and protease inhibitor (Roche) cocktail. Equal amounts of protein were separated by SDS-PAGE and then transferred to PVDF membranes. The membranes were blocked with 3% BSA in TBST (Blocking solution) and incubated with necessary primary antibodies in the blocking solution overnight at 4° C. Membranes were then incubated with HRP-conjugated secondary antibodies in the blocking solution for 1 h at room temperature, and protein expression were detected. Antibodies used: anti-α-tubulin (Sigma), anti-EpCAM (abeam), anti-Active β-Catenin (Millipore), anti-total β-Catenin (abeam), anti-Frizzled 6 (CST), anti-Frizzled 7 (Santa Cruz Biotech), anti-LRP5 (abcam), anti-Phospho-LRP5 (abcam), anti-Phospho-LRP6 (CST), anti-LRP6 (CST) and anti-EpEX antibody EpAb3-5 (Produced in house), anti-ADAM17 (abcam), anti-phopho-ADAM17 (abcam), anti-Presenilin2 (abcam), anti-phospho-Presenilin2 (S327) (abcam), anti-phospho-Presenilin2 (S330) (abcam) and anti-Axin2 (CST).
Glass slides were used in 24-well plates and coated with 0.1% gelatin. Further, 3×10^4 cells were seeded in serum free medium overnight. Cells were treated with 20 μg/mL EpAb2-6 for 6 h, or 400 ng/mL LGK974 (MedChemExpress) for 9 h or the combination. Cells were washed using ice-cold PBS and fixed with 4% paraformaldehyde for 15 min at RT and washed with ice-cold PBS. Further, cells were permeabilized using 0.1% triton-X in PBS for 20 min and subsequently washed with PBS. Cells were blocked with 3% BSA in PBS for 1 h at RT. Next, cells were treated with primary antibody anti-Active β-Catenin (Millipore) overnight. Then, cells were washed and treated with secondary antibody in 3% BSA containing PBS along with DAPI for 1 h at RT. Samples were then washed in PBS five times and mounted for microscopy. Nuclear β-Catenin intensities were calculated using IMARIS (Oxford Instruments) software.

[2] = system: TCF; assay: TCF activity (TOP-Flash TCF luciferase reporter); format: cell-based, human
Procedure: Cells were plated at 5×10^3 cells per well and grown overnight in 12-well plates. Then, cells were transiently transfected with TOP-Flash TCF reporter plasmid (Millipore) using poly-jet transfection reagent (SignaGen). At 48 h post transfection, cells were treated with 20 µg/mL Anti-EpCAM EpAb2-6 (Produced in house) or MT201 (Produced in house) for 6 h or 400 ng/mL LGK974 (MedChemExpress) for 9 h or the combination, as indicated. In addition, cells were treated with EpEX (Produced in house by Expi293 Expression System) or recombinant Wnt3A (R & D systems) or the combination for 8 h. Finally, cells were lysed, and the luciferase assay was performed.
(§2) The cells were seeded in 24-well plates (1×10^4 cells/well) and incubated at 37° C. for 24 h. The culture media were refreshed, and the cells were transfected with respective reporter plasmids (TCF reporter or Wnt receptor promoter reporter) by PolyJET (SignaGen). The transfected efficiency was normalized by co-transfected with pRL-TK (20 ng) as an internal control. Additional treatments were conducted as indicated. Firefly luciferase and Renilla luminescence were measured 48 h post-transfection using the Dual-Glo Luciferase Assay System (Promega), according to the manufacturer's recommendations.

[3] = system: Wnt receptors (FZD6/7, LRP5/6); assay: Wnt receptor protein and mRNA expression (western blot, qPCR); format: cell-based, human; settings: HT29 and HCT116 cells; overnight DAPT treatment
Procedure: as §1
Total RNA was extracted using TRI reagent and 5 μg of the total RNA was further reverse-transcribed using oligo (dT) primer with reverse transcriptase. Quantitative real time RT-PCR (qPCR) was performed on cDNA using the Light Cycler 480 SYBR Green-I Master kit and the LightCycler480 System. The gene expression levels of each sample were normalized to the expression levels of glyceraldehyde 3-phosphate dehydrogenase (GAPDH) or β-actin.

[4] = system: Wnt receptor promoters (LRP5, LRP6, FZD6, FZD7); assay: Wnt receptor promoter luciferase reporter assay; format: cell-based, human; settings: cells transfected with EpCAM plasmid; overnight DAPT treatment
Procedure: as §2
The putative promoter regions of LRP5 (−1187 to +200), LRP6 (−1543 to +55), FZD6 (−1385 to +205) and FZD7 (−1285 to +116) were cloned from HeLa genomic DNA and fused to pGL4.18 plasmid (Promega, USA). The genomic DNA was extracted using a Genomic DNA Isolation Kit (NovelGene, TW) according to the manufacturer's recommendations.

[5] = system: HCT116, HT29 and SW620 cells; assay: Tumorsphere assay; format: cell-based, human; settings: summary statement; CRC cells; tumorsphere and colony formation
Procedure: Cells were seeded in ultra-low adherent 6-well plates (5×10^4 cells per well) or 24-well plates (1×10^3 cells per well) and maintained in DMEM/F-12 supplemented with B27. Further, cells were treated with 20 μg/mL mEpAb2-6, hEpAb2-6 or MT201 (Produced in house), or 400 ng/mL LGK974 (MedChemExpress) or the combination, by direct addition to the culture medium. The entire culture medium, including the treatment component, was changed in every other day. Cells were cultured for 10 days, and on 10th day, spheres were counted and photographed under the microscope.

[6] = system: colon cancer cells (SW620, HCT116); assay: Annexin-V/PI apoptosis assay; format: cell-based, human; settings: HCT116 cells; 20 μg/mL hEpAb2-6, mEpAb2-6 or MT201 for 24 hrs
Procedure: Cells were seeded in 24-well plate ([…] cells per well) overnight and then treated with 20 μg/mL mEpAb2-6, hEpAb2-6 or MT201, or […] LGK974 (MedChemExpress) or the combination for 24 hrs. Cell pellets were collected, and an apoptosis assay was performed using an Annexin-V/PI apoptosis kit (BD Biosciences). Results were read by flow cytometry analysis percentage apoptotic cells was calculated.

[7] = system: colon cancer cells (SW620, HCT116); settings: general description of other anti-EpCAM antibodies; cited from earlier work
[8] = molecular target: T1, EpCAM (Homo sapiens, UniProt P16422); settings: general description of other anti-EpCAM antibodies; cited from earlier work
T1 construct: HEK293T cells were transfected with full length or EGF like-domain deletion mutant EpCAM-V5; V5; expressed in transfected cells; host or cells: HEK293T
T1 sequence (P16422 24-314): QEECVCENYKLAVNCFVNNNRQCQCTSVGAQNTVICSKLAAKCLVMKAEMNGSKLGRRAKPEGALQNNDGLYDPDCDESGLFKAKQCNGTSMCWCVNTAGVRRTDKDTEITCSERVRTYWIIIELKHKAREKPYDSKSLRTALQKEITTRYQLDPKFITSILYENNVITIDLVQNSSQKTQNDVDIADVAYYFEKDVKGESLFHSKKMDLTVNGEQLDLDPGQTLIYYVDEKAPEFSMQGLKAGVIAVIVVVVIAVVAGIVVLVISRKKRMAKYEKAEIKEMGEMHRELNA

[9] = wild-type HCT116 cells, DAPT with or without EpEX

- TCF activity [2, 9]: marginally decreased TCF activity
- Wnt receptor promoter activity [4]: almost completely blocked the effect
Molecule: C[C@H](NC(=O)Cc1cc(F)cc(F)c1)C(=O)N[C@H](C(=O)OC(C)(C)C)c1ccccc1 [DAPT, reference compound]
- nuclear translocation of β-Catenin [1, 9]: decreased nuclear translocation of β-Catenin
- expression of Wnt receptors [3]: reduced expression of Wnt receptors

B1: hEpAb2-6: humanized form of EpAb2-6 (antibody, V domains shown)
VH: VKLQESGPELKKPGETVKISCKASGYTFTDYSMHWVKQAPGKGLKWMGWINTETGEPTYADDFKGRFAFSLETSASTAYLQINNLKNEDTATYFCARTAVYWGQGTTVTVSS
VL: DIQMTQSPSSLSASLGERVSLTCRASQEISVSLSWLQQEPDGTIKRLIYATSTLDSGVPKRFSGSRSGSDYSLTISSLESEDFVDYYCLQYASYPWTFGGGTKLEIKRADAAPTVS
- nuclear translocation of β-Catenin ([1]; HT29 cells, 20 μg/mL hEpAb2-6 or MT201 for 6 h): retained β-Catenin inhibitory activity; also recorded: attenuates nuclear translocation of β-Catenin
- TCF activity ([2]; HT29 cells, 20 µg/mL antibody for 6 h): retained β-Catenin inhibitory activity thus related TCF activity
- cancer stemness properties [5]: limits cancer stemness
- induction of apoptosis [6]: induces apoptosis

B2: edrecolomab: other anti-EpCAM antibody targeting only the EGF I domain (antibody, chains of the INN, looked up, V domains shown)
VH: QVQLQQSGAELVRPGTSVKVSCKASGYAFTNYLIEWVKQRPGQGLEWIGVINPGSGGTNYNEKFKGKATLTADKSSSTAYMQLSSLTSDDSAVYFCARDGPWFAYWGQGTLVTVSA
VL: NIVMTQSPKSMSMSVGERVTLTCKASENVVTYVSWYQQKPEQSPKLLIYGASNRYTGVPDRFTGSGSATDFTLTISSVQAEDLADYHCGQGYSYPYTFGGGTKLEIK
- inducing apoptosis of cancer cells [7]: failing
- EpCAM domains bound [8]: target only the well-described EGF I domain of EpCAM; also recorded: binding to domain I only
